Source: article PMC6993976, “Insulin BBB pharmacokinetics in young apoE male and female transgenic mice” (PLoS ONE, 2020)

How the values were obtained:
[1] = system: blood-brain barrier (BBB); test: BBB pharmacokinetic transport of 125I-insulin, multiple-time regression analysis (Ki, Vi); assay type: in vivo, mouse (human E3- and E4-targeted replacement mice); settings: for Insulin transport rate Ki / Reversible vascular binding (Vi): n = 7-10 mice/group; for Ki (unidirectional influx from blood to brain) / Vi (reversible vascular binding): whole brain; for Ki (unidirectional influx from blood to brain): multiple-time regression, ± SE
Protocol: Mice were anesthetized with an intraperitoneal injection of 0.1 mL 40% urethane to minimize pain and distress. […] We correct for the exact amount of radioactivity injected based on serum levels. […] Blood from the left carotid artery was collected between 0.5–10 min after intravenous injection. Mice were immediately decapitated and their whole brains quickly removed and weighed. The arterial blood was centrifuged at 5400g for 10 min at 4°C and serum collected. The brains were dissected into regions according to the method of [27] and weighed. The levels of radioactivity in serum (50 μL) and brain regions were counted in a gamma counter (Wizard2, Perkin Elmer, Waltham, MA). […] Expt was calculated from the formula: Exposuretime=∫0tCp(t)dt/Cp(t) (1) where Cp is the level of radioactivity (cpm) in serum at time (t). Expt corrects for the clearance of peptide from the blood. […] The influx of insulin was calculated by multiple-time regression analysis as described by Patlak, Blasberg, and Fenstermacher: Am/Cpt=Ki(∫0tCp(t)dt/Cp(t))+Vi (2) where Am is level of radioactivity (cpm) per g of brain tissue at time t, Cpt is the level of radioactivity (cpm) per mL arterial serum at time t, Ki (μL/g-min) is the unidirectional solute influx from blood to brain, and Vi (μL/g) is the level of rapid and reversible binding for the brain vasculature. The brain/serum (B/S) ratios for insulin were corrected for vascular space by subtracting the corresponding ratio for albumin, yielding a delta B/S ratio. The linear portion of the relation between the delta B/S ratio versus Expt was used to calculate the Ki (μL/g-min) with its standard error term, and the y-intercept determined as representation of the Vi (μL/g) for each brain region. For whole brain, the weights and cpm of all individual brain regions except for the olfactory bulb were summed to calculate the B/S ratio. […] All anesthetized mice were killed by decapitation at the end of the study.
Regression analysis and other statistical analyses were performed with the use of Prism 8.0 (GraphPad Software Inc., San Diego, CA, USA). Brain weight means are reported with their standard error terms and compared by two-way analysis of variance (ANOVA) followed by Sidak’s post hoc test to determine differences due to genotype or sex. […] For pharmacokinetic studies (multiple-time regression analysis), the slope of the linear regression lines (Ki), reported with their correlation coefficients (r), and y-intercepts (Vi) were compared statistically with the Prism 8.0 software package, as described.

[2] = set-up: species or system mouse (human E3- and E4-targeted replacement mice); settings: in vivo
Protocol: Mice were anesthetized with an intraperitoneal injection of 0.1 mL 40% urethane to minimize pain and distress. […] We correct for the exact amount of radioactivity injected based on serum levels. […] Blood from the left carotid artery was collected between 0.5–10 min after intravenous injection. Mice were immediately decapitated and their whole brains quickly removed and weighed. The arterial blood was centrifuged at 5400g for 10 min at 4°C and serum collected. The brains were dissected into regions according to the method of [27] and weighed. The levels of radioactivity in serum (50 μL) and brain regions were counted in a gamma counter (Wizard2, Perkin Elmer, Waltham, MA). […] Expt was calculated from the formula: Exposuretime=∫0tCp(t)dt/Cp(t) (1) where Cp is the level of radioactivity (cpm) in serum at time (t). Expt corrects for the clearance of peptide from the blood. […] The influx of insulin was calculated by multiple-time regression analysis as described by Patlak, Blasberg, and Fenstermacher: Am/Cpt=Ki(∫0tCp(t)dt/Cp(t))+Vi (2) where Am is level of radioactivity (cpm) per g of brain tissue at time t, Cpt is the level of radioactivity (cpm) per mL arterial serum at time t, Ki (μL/g-min) is the unidirectional solute influx from blood to brain, and Vi (μL/g) is the level of rapid and reversible binding for the brain vasculature. […]

[3] = system: blood-brain barrier (BBB); settings: in vivo; cited from earlier work
Source text: Our studies are designed to investigate the transfer of human ^125I-insulin from the periphery to the CNS. Rat and human insulin are transported across the BBB at similar rates and are both saturable by excess respective peptide. […] We used the well-described multiple-time regression analysis technique first described by Patlak, Blasberg, and Fenstermacher. This an ...

[4] = system: blood-brain barrier (BBB); set-up: method as in PMID 30044494; settings: in vivo; cited from earlier work

Substance: 125I-insulin: Human insulin (Sigma-Aldrich) radioactively labeled with Na125I by the chloramine-T method
- Insulin transport rate Ki ([1]; E3 Female, Cerebellum): 1.189 µL/g/min
- Reversible vascular binding (Vi) ([1]; E3 Female, Cerebellum): 8.36 µL/g
- Insulin transport rate Ki ([1]; E3 Female, Frontal Cortex): 0.796 µL/g/min
- Reversible vascular binding (Vi) ([1]; E3 Female, Frontal Cortex): 4.65 µL/g
- Insulin transport rate Ki ([1]; E3 Female, Hippocampus, ns = non-significant transport): ns
- Insulin transport rate Ki ([1]; E3 Female, Hypothalamus): 1.541 µL/g/min
- Reversible vascular binding (Vi) ([1]; E3 Male, Parietal Cortex): 4.17 µL/g
- Insulin transport rate Ki ([1]; E3 Male, Pons/Medulla): 0.739 µL/g/min
- Insulin transport rate Ki ([1]; E3 Male, Striatum, ns = non-significant transport): ns
- Insulin transport rate Ki ([1]; E3 Male, Thalamus, ns = non-significant transport): ns
- Insulin transport rate Ki ([1]; E4 Female, Cerebellum): 2.110 µL/g/min
- Reversible vascular binding (Vi) ([1]; E4 Female, Cerebellum): 8.91 µL/g
- Insulin transport rate Ki ([1]; E4 Female, Frontal Cortex): 0.720 µL/g/min
- Reversible vascular binding (Vi) ([1]; E4 Female, Olfactory Bulb): 11.71 µL/g
- Insulin transport rate Ki ([1]; E4 Female, Parietal Cortex): 0.859 µL/g/min
- Reversible vascular binding (Vi) ([1]; E4 Female, Parietal Cortex): 3.31 µL/g
- Insulin transport rate Ki ([1]; E4 Female, Pons/Medulla): 1.111 µL/g/min
- Insulin transport rate Ki ([1]; E4 Female, Striatum, ns = non-significant transport): ns
- Insulin transport rate Ki ([1]; E4 Female, Thalamus): 0.634 µL/g/min
- Insulin transport rate Ki ([1]; E4 Male, Cerebellum, ns = non-significant transport): ns
- Insulin transport rate Ki ([1]; E4 Male, Frontal Cortex): 1.023 µL/g/min
- Reversible vascular binding (Vi) ([1]; E4 Male, Frontal Cortex): 5.90 µL/g
- Insulin transport rate Ki ([1]; E4 Male, Hippocampus, ns = non-significant transport): ns
- Insulin transport rate Ki ([1]; E4 Male, Hypothalamus): 2.272 µL/g/min
- Reversible vascular binding (Vi) ([1]; E4 Male, Hypothalamus): 5.63 µL/g
- Insulin transport rate Ki ([1]; E4 Male, Midbrain): 0.887 µL/g/min
- Reversible vascular binding (Vi) ([1]; E4 Male, Midbrain): 6.38 µL/g
- Insulin transport rate Ki ([1]; E4 Male, Occipital Cortex): 0.793 µL/g/min
- Reversible vascular binding (Vi) ([1]; E4 Male, Occipital Cortex): 6.71 µL/g
- Insulin transport rate Ki ([1]; E4 Male, Olfactory Bulb): 1.712 µL/g/min
- Reversible vascular binding (Vi) ([1]; E4 Male, Olfactory Bulb): 13.31 µL/g
- Insulin transport rate Ki ([1]; E4 Male, Parietal Cortex): 0.920 µL/g/min
- Reversible vascular binding (Vi) ([1]; E4 Male, Parietal Cortex): 4.74 µL/g
- Insulin transport rate Ki ([1]; E4 Male, Pons/Medulla, ns = non-significant transport): ns
- Insulin transport rate Ki ([1]; E4 Male, Striatum, ns = non-significant transport): ns
- Insulin transport rate Ki ([1]; E4 Male, Thalamus): 1.203 µL/g/min
- Reversible vascular binding (Vi) ([1]; E4 Male, Thalamus): 4.56 µL/g
- Ki (unidirectional influx from blood to brain) ([1]; Female E3, iv, albumin-corrected): 1.128 ± 0.32 µL/g/min
- Vi (reversible vascular binding) ([1]; Female E3, y-intercept of multiple-time regression): 4.41 ± 2.31 µL/g
- Ki (unidirectional influx from blood to brain) ([1]; Female E4): 1.033 ± 0.28 µL/g/min
- Vi (reversible vascular binding) ([1]; Female E4, y-intercept of multiple-time regression): 7.17 ± 2.07 µL/g
- Vi (reversible vascular binding) ([1]; Female, genotypes Combined): 7.84 ± 1.26 µL/g
- Ki (unidirectional influx from blood to brain) ([1]; Female, genotypes Combined): 0.691 ± 0.16 µL/g/min
- Vi (reversible vascular binding) ([1]; Male E3, y-intercept of multiple-time regression): 7.17 ± 0.95 µL/g
- Ki (unidirectional influx from blood to brain) ([1]; Male E4): 0.781 ± 0.32 µL/g/min
- Vi (reversible vascular binding) ([1]; Male E4, y-intercept of multiple-time regression): 8.23 ± 2.13 µL/g
- Vi (reversible vascular binding) ([1]; Male, genotypes Combined): 7.88 ± 1.09 µL/g
- Ki (unidirectional influx from blood to brain) ([1]; Male, genotypes Combined): 0.803 ± 0.17 µL/g/min
- Serum clearance rate, slower in males compared to females [2]: > 2 fold
- Whole brain transport rate, average previously observed [3]: 0.71 ± 0.17 µL/g/min
- Distribution between brain capillary and brain parenchyma [4]: enters the brain parenchyma
